In publication PMC7335187, “Super-assembly of ER-phagy receptor Atg40 induces local ER remodeling at contacts with forming autophagosomal membranes” (Nature Communications, 2020):

Experiments:
[1] = molecular target: T1, GABARAP WT (human GABARAP 1-116) (human, UniProt O95166 1-116); test: ITC; peptide in the syringe (0.5 mM) titrated into 200 µl of the Atg8 homologue in the cell at a 10 times lower concentration; MicroCal iTC200, 25 °C, stirring at 1000 rpm; single-site binding model; N fixed to 1.0 when the fitting was not convergent due to weak interaction; errors are fitting errors; conditions: both partners purified
LC3B WT (rat LC3B 1-120) [2] = molecular target: T2, LC3B WT (rat LC3B 1-120) (rat, UniProt Q62625 1-120); test: as above; conditions: both partners purified
LC3A WT [3] = molecular target: T3, LC3A WT (UniProt Q9H492 1-121); test: as above; conditions: both partners purified
Atg8 (1-116) K26P = molecular target: T4, Atg8 (1-116) K26P (S. cerevisiae, UniProt P38182 1-116, K26P); test: ITC; MicroCal iTC200, 25 °C; peptide in the syringe (FAM134B, SEC62, RTN3 0.5 mM; Atg40^234–252 2.0 mM; Atg40^237–252 1.8 mM), Atg8-family protein in the cell at 10 times lower concentration (1.8 mM Atg8 for Atg40^237–252 D243A D247A); 20 mM HEPES pH 6.8, 150 mM NaCl; single-site model; errors are fitting errors; conditions: both partners purified
T4 sequence (looked up): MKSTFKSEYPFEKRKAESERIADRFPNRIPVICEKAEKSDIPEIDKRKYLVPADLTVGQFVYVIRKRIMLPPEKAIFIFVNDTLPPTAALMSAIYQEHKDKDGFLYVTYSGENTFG

LC3C WT = LC3C WT (UniProt Q9BXW4 1-126); test: ITC; peptide in the syringe (0.5 mM) titrated into 200 µl of the Atg8 homologue in the cell at a 10 times lower concentration; MicroCal iTC200, 25 °C, stirring at 1000 rpm; single-site binding model; N fixed to 1.0 when the fitting was not convergent due to weak interaction; errors are fitting errors; conditions: both partners purified
LC3A WT [4] = molecular target: T3, LC3A WT; test: as above; conditions: both partners purified; remark: listed apart in the source
GABARAPL2 WT [5] = molecular target: T5, GABARAPL2 WT (UniProt P60520 1-117); test: as above; conditions: both partners purified
GABARAPL1 WT [6] = molecular target: T6, GABARAPL1 WT (UniProt Q9H0R8 1-117); test: as above; conditions: both partners purified
[7] = molecular target: T7, Atg8 K26P (in the crystallised Atg40^237–252-Atg8 fusion) (S. cerevisiae, UniProt P38182 1-116, K26P); test: crystal structure; the AIM sequence fused to the N terminus of Atg8 K26P or GABARAP F3S V4T on one chain; sitting-drop vapor diffusion at 20 °C; molecular replacement; conditions: both partners purified
T7 construct: Atg8, S. cerevisiae (ScAtg8), residues 1-116; K26P introduced for stabilizing Atg8; the GST of the fusion stood before m15 and was cleaved; source: E. coli BL21 (DE3), purified (GST-accept resin, HRV 3C protease, SEC), on one chain with m15
T7 sequence (looked up): T4 sequence (looked up)

GABARAPL2 WT [8] = molecular target: T5, GABARAPL2 WT; test: ITC; peptide in the syringe (0.5 mM) titrated into 200 µl of the Atg8 homologue in the cell at a 10 times lower concentration; MicroCal iTC200, 25 °C, stirring at 1000 rpm; single-site binding model; N fixed to 1.0 when the fitting was not convergent due to weak interaction; errors are fitting errors; conditions: both partners purified; remark: listed apart in the source
GABARAPL1 WT [9] = molecular target: T6, GABARAPL1 WT; test: as above; conditions: both partners purified; remark: listed apart in the source
LC3B WT (rat LC3B 1-120) [10] = molecular target: T2, LC3B WT (rat LC3B 1-120); test: as above; conditions: both partners purified; remark: listed apart in the source
[11] = molecular target: T1, GABARAP WT (human GABARAP 1-116); test: as above; conditions: both partners purified; remark: listed apart in the source
[12] = molecular target: the molecule itself; test: co-IP; two-step: anti-FLAG beads, elution with 3 x FLAG peptide, then GFP nanobody-conjugated beads, blot for Atg40-HA; wild-type cells; larger oligomers significantly decreased in atg1Δ, atg2Δ and atg8Δ cells
[13] = molecular target: the molecule itself; test: SEC-MALS; Atg40-6His solubilized in DDM; Superdex 200 increase 10/300 in 20 mM Tris-HCl pH 8.0, 150 mM NaCl, 0.03% DDM, room temperature

T6 sequence (Q9H0R8 whole entry, the tested form may be a part): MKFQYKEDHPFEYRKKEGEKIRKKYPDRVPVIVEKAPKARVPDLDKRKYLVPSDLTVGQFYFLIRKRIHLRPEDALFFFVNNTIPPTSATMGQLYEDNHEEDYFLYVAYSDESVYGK
T1 sequence (O95166 1-116): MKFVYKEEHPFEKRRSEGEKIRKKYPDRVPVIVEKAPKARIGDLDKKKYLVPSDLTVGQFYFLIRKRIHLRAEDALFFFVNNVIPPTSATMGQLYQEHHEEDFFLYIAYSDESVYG
T5 sequence (P60520 whole entry): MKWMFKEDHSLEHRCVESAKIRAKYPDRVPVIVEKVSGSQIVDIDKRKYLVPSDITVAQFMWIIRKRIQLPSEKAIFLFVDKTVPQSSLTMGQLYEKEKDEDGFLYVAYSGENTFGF
Chain of LC3C WT (Q9BXW4 1-126): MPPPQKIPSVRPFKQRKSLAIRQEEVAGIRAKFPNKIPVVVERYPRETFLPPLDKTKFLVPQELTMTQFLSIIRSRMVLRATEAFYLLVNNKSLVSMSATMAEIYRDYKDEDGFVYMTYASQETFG

B1: RTN3245-253 (Δhelix) peptide (peptide)
peptide: YESPFEVIID
notes: numbers count on: isoform e; also called RTN3245-253 WT (Δhelix); source: synthetic peptide
Q: Which results are given for B1?
A: Kd [1]: 14 µM; stoichiometry N [1]: 0.82 site; Kd (LC3B WT (rat LC3B 1-120) [2]): 31.1 µM; stoichiometry N (LC3B WT (rat LC3B 1-120) [2]): 0.91 site; Kd (LC3A WT [3]): 21.7 µM; stoichiometry N (LC3A WT [3]): 0.54 site

B2: Atg40^234–252 peptide (peptide, UniProt Q99325 234-252, looked up)
peptide: TSTEFPNDYDFMEDILDET
notes: Atg40, S. cerevisiae, residues 234-252; also called wild-type peptide; source: synthetic peptide (Liberty Blue peptide synthesizer), SEC
Q: B2 was tested. Which Kd (Atg8 (1-116) K26P) did it give?
A: 590 nM

B3: SEC62361-368 (Δhelix) peptide (peptide)
peptide: NDFEMITKY
notes: SEC62, human, residues 361-368 (lacks the helix C-terminal to the AIM/LIR); Tyr attached to the C terminus for quantification by absorbance at 280 nm; also called Sec62361-368 WT (Δhelix); source: synthetic peptide (BEX Co., Ltd.), SEC
Q: Which results are given for B3?
A: Kd (LC3C WT): 31.9 µM; Kd (LC3A WT [4]): 54.6 µM; stoichiometry N (LC3A WT [4]): 0.98 site; Kd (GABARAPL2 WT [5]): 90.9 µM; Kd (GABARAPL1 WT [6]): 13.3 µM; stoichiometry N (GABARAPL1 WT [6]): 0.99 site

Q: Does EFPNDYDFMEDILDET (domain or fragment, S. cerevisiae, UniProt Q99325 237-252, looked up) [Atg40^237–252 (in the crystallised Atg40^237–252-Atg8 fusion)] bind [7]?
A: binds

B4: RTN3245-264 peptide (peptide)
peptide: ESPFEVIIDKAAFDKEFKDSY
notes: numbers count on: isoform e; Tyr attached to the C terminus for quantification by absorbance at 280 nm; source: synthetic peptide
Q: For B4, which Kd [1] is on record?
A: 5.03 µM

Q: What about the “stoichiometry N” value [1] of the same binder?
A: 0.74 site

Q: And the Kd (LC3B WT (rat LC3B 1-120) [2])?
A: 28.8 µM

Q: And the Kd (LC3A WT [3])?
A: 17.2 µM

Q: And the “stoichiometry N” value (LC3A WT [3])?
A: 0.55 site

Q: What about the Kd (GABARAPL2 WT [8]) of the same binder?
A: 17.4 µM

Q: And the “stoichiometry N” value (GABARAPL2 WT [8])?
A: 0.51 site

Q: What about the Kd (GABARAPL1 WT [9]) of the same binder?
A: 5 µM

Q: What about the “stoichiometry N” value (GABARAPL1 WT [9]) of the same binder?
A: 0.81 site

Q: With GPHSSGNGNDFEMITKEELEQQTDY [SEC62355-376 WT peptide] as the binder, how does the Kd (LC3C WT) read?
A: 5.18 µM

Q: And the “stoichiometry N” value (LC3C WT)?
A: 0.46 site

Q: What about the Kd (LC3A WT [4]) of the same binder?
A: 0.92 µM

Q: And the “stoichiometry N” value (LC3A WT [4])?
A: 0.78 site

Q: What about the Kd (GABARAPL2 WT [5]) of the same binder?
A: 0.58 µM

Q: And the “stoichiometry N” value (GABARAPL2 WT [5])?
A: 0.78 site

Q: And the Kd (GABARAPL1 WT [6])?
A: 0.39 µM

Q: And the “stoichiometry N” value (GABARAPL1 WT [6])?
A: 0.83 site

Q: And the Kd (LC3B WT (rat LC3B 1-120) [10])?
A: 3.37 µM

Q: And the “stoichiometry N” value (LC3B WT (rat LC3B 1-120) [10])?
A: 0.74 site

Q: For GPHSSGNGNDFEMATKEELEQQTDY [SEC62355-376 I366A peptide], which Kd [11] is on record?
A: 14.5 µM

Q: What about the “stoichiometry N” value [11] of the same binder?
A: 0.87 site

B5: Atg40-HA (natural protein, S. cerevisiae, UniProt Q99325 1-256, looked up)
chain: MFNLILWPLFLLTSVAIPLQLTLEVVYLTSSVDFSKASAAKTATSLGQSPVVITIYKSLLKYWSLYEFIHFIYLYTPIDAFLNFLPFTSLLMSFGSICLTRELVYDFIAFMESQNKLTGFLNKITEPNFNSYLLFSSIYNIWFADDTNDKFLFGKLTQILISVTKRYEFPRTFYLAKVSDFLQNLILTRLRPFVTEQPQGDKNRYQNGDRESTKNGAAYQKSSQQSSSFEQNFTSTEFPNDYDFMEDILDETTELD
notes: Atg40, ER-phagy receptor of S. cerevisiae; also called Atg40-FLAG; Atg40-GFP; source: S. cerevisiae cells treated with rapamycin, in lysate
Q: With B5 as the binder, how does the “stoichiometry N” value [12] read?
A: > 2

B6: Atg40-6His (natural protein, S. cerevisiae, UniProt Q99325 1-256, looked up)
chain: B5 chain
notes: Atg40, S. cerevisiae; Atg40-6His is printed as 30.6 kDa; also called purified Atg40; source: S. cerevisiae BJ3505 (GPD promoter), purified from membranes in DDM (Ni-NTA, SEC)
Q: For B6, which “stoichiometry N” value [13] is on record?
A: 2
